In paper PMC2118669 one finds response (RU) on injection of 25 nM CypA data, which are given here for one substance.

The test concerns the target recombinant AIF (UniProt Q9Z0X1). The test is described as follows: SPR.
Chain of UniProt Q9Z0X1 (Q9Z0X1 102-612): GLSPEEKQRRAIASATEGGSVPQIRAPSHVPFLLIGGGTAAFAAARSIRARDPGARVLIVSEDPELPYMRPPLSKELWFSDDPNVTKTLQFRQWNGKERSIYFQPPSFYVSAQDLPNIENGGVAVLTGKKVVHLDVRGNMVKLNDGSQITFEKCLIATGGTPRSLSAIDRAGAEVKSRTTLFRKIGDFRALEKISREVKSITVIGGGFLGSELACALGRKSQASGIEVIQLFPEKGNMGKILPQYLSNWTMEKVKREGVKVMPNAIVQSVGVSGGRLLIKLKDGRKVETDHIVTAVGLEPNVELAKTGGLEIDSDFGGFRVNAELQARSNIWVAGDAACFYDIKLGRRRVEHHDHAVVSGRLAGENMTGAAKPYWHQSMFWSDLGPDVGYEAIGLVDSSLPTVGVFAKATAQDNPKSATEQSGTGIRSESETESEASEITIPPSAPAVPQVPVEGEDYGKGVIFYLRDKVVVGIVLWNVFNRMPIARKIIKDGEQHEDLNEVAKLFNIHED

Regarding “recombinant CypA (from UniProt P62937 1-165) (natural protein)”, the response (RU) on injection of 25 nM CypA was 123 RU.
